Experimental data published in patent US20200200749A1 (VANDERBILT UNIVERSITY, published 2020).

Assays:
[1] = molecular target: T1, EBOV GP (recombinant, full-length extracellular domain) (EBOV (Ebola Zaire), UniProt Q05320 33-650); assay: ELISA, GP coated on plate, mAb serially diluted
T1 sequence: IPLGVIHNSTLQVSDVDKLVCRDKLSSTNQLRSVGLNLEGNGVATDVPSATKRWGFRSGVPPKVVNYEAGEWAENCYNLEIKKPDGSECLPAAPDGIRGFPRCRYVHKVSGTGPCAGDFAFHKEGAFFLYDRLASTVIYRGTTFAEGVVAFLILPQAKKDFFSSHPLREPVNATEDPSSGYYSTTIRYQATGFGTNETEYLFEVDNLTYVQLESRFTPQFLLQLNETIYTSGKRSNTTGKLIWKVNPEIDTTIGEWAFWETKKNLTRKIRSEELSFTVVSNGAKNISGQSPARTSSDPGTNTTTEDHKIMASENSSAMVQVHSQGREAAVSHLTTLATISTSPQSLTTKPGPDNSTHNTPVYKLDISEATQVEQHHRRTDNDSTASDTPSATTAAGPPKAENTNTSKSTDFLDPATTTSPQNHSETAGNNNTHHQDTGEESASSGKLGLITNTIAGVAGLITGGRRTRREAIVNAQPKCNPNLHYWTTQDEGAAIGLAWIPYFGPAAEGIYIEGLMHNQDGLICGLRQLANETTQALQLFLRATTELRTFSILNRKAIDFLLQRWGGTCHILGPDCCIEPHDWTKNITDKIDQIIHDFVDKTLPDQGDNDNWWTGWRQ

EBOV sGP = molecular target: T2, EBOV sGP (EBOV (Ebola Zaire), UniProt P60170 33-324); assay: ELISA, sGP coated on plate, mAb serially diluted
T2 sequence: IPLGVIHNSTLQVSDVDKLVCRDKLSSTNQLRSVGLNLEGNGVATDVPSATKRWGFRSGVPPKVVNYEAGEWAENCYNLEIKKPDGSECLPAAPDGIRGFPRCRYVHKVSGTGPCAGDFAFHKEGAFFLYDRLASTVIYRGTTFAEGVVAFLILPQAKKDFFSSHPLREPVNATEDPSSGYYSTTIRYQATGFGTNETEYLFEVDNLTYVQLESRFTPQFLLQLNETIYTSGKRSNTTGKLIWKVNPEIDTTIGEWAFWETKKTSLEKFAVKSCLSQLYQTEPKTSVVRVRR

SUDV GP (recombinant) = molecular target: T3, SUDV GP (recombinant) (SUDV (Sudan ebolavirus), UniProt Q66814 33-650); assay: ELISA, GP coated on plate, mAb serially diluted
T3 sequence: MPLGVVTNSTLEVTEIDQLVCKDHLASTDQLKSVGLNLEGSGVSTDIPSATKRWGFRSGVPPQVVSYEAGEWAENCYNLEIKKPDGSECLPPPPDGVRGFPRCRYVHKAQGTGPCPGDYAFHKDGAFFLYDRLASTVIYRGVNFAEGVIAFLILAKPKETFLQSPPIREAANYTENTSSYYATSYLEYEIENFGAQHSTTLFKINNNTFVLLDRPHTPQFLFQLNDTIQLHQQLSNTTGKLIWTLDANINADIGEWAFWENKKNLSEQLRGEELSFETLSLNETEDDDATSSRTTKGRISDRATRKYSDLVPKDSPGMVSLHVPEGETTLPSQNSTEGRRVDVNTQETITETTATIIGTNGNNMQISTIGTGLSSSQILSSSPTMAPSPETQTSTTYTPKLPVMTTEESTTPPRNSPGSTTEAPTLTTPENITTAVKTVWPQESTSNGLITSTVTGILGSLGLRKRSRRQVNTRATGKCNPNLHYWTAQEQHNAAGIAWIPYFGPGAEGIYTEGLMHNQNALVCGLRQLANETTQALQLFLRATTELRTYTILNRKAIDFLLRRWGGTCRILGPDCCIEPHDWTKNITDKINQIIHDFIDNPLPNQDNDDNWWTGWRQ

B1: EBOV49 (antibody, V domains shown)
VH: EVQLVESGGGLVQPGGSLRLSCAASGFTFSSYEINWVRQAPGRGLEWVSYISSSGRTIYYADSVKGRFTISRDNAKNSLYLQMNSLRAEDTAVYYCAREPYVDGILYGAGDSYFDYWGQGTLVTVSS
VL: DIQMTQSPSSLSASVGDRVTITCRASQSISNYLNWYQQKPGKAPKVLIYAASSLQSGVSSRFSGSGSGTDFTLTISSLQPEDFATYFCQQSYNTPPVTFGQGTRLEIK
EC50 [1]: 262 µg/mL
EC50 (EBOV sGP): 61 µg/mL

B2: EBOV87 (antibody, V domains shown)
VH: QVQLVQSGAEVKRPGASVKVSCKASGYTFTSYAISWVRQAPGQGLEWMGWISGNNGNTNYAQKLQGRLTMTTDTSTSTAYMELRSLRSDDTAVYYCARDADIVVVVGATGTYYYGMDVWGQGTLVTVSS
VL: DIVMTQSPSTLSASVGDRVTITCRASQSISSWLAWYQQKPGKAPKLLIYDASSLESGVPSRFSGSGSGTEFTLTISSLQPDDFATYYCQQYKSSLRTFGQGTQLEIK
EC50 (SUDV GP (recombinant)): 629 µg/mL
EC50 [1]: 724 µg/mL
EC50 (EBOV sGP): 51 µg/mL

B3: EBOV52 (antibody, V domains shown)
VH: QVQLQESGPGLVKPSETLSLNCTVSGGSISSYYWSWIRQPPGKGLEWIGYIYDSGRTKYNPSLKSRVTISLDTSKNQFSLKLSSVTAADTAVYYCASLGPFDKLWFGELLPGWFDPWGQGTLVTVSS
VL: EIVLTQSPATLSLSPGGRATLSCRASQSVHNYLAWYQQKSGQAPRLLIYDASNRATGIPARFSGSGSGTDFTLTISSLEPDDFAVYYCQHRSNWLTFGGGTKVEIK
EC50 [1]: 712 µg/mL
EC50 (EBOV sGP): 82 µg/mL

B4: EBOV62 (antibody, V domains shown)
VH: EVQLVESGGGLVQPGGSLRLSCAASGFTFSSYWMSWVRQAPGKGLEWVANIKQDGSAKYYVDSVKGRFTISRDNAKNSLYLQMNSLRAEDTAVYYCARDGLLGISDLLYPIYYFDYWGQGTLVTVSS
VL: DIVMTQSPSSLSASVGDRVTITCRASQNIGSYLNWYQQKPGKAPNLLMYAASSLQSGVPSRFSGSGSGTDFTLTITSLQPEDFATYYCQQSYSIPRTFGQGTQLEIK
EC50 [1]: 228 µg/mL
EC50 (EBOV sGP): 51 µg/mL

B5: EBOV63 (antibody, V domains shown)
VH: EVQLVESGGGLVKPGGSLRLSCAASGFTLNFYNMNWVRQAPGKGLEWVSSISSSSNYIYYADSVKGRFTISRDNARKSLYLQMNSLRAEDTAVYYCARDFVQLLIPQRDEWQGVHDYYGMDVWGQGTLVTVSS
VL: EIVLTQSPGTLSLSPGGRATLSCRASQSVSNSYLAWYQQKPGQAPRLLIYGASSRATGIPDRFSGSGSGTDFILTISRLEPEDFAVYYCQHYGSSQLTFGGGTKVEIK
EC50 [1]: 283 µg/mL
EC50 (EBOV sGP): 38 µg/mL
